Reference: patent US20240092919A1 (Ablynx, published 2024)
Read-outs that look alike come from different tables or passages of the source.

T1: Cynomolgus TCR(AEA41865/AEA41866)-zipper protein (cynomolgus monkey)
T1 construct: also called cyTCR-zipper protein; cynoTCR zipper
T1 TCR alpha: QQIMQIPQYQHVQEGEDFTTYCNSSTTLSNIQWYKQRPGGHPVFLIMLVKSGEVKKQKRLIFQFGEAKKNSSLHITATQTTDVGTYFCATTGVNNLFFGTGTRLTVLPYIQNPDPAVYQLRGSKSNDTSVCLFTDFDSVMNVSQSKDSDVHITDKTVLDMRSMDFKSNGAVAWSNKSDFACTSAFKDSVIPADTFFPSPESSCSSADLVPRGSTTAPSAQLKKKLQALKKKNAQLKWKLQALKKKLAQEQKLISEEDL
T1 TCR beta: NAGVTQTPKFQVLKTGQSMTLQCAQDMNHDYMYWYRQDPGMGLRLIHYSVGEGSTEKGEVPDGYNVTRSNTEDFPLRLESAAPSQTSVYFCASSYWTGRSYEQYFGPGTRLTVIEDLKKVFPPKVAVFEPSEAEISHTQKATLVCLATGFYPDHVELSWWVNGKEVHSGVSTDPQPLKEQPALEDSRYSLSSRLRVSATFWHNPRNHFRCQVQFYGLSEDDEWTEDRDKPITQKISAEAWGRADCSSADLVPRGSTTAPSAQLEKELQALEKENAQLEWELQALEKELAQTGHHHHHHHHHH

T2: Human T cell receptor on human primary T cells (human, UniProt P01848 1-140; P01850 1-176)
T2 construct: whole, on cells
T2 TCR alpha (looked up): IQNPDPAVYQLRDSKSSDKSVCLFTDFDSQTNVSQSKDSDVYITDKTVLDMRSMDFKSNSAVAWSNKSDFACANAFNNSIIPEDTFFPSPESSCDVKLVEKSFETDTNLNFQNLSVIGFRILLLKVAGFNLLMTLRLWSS
T2 TCR beta (looked up): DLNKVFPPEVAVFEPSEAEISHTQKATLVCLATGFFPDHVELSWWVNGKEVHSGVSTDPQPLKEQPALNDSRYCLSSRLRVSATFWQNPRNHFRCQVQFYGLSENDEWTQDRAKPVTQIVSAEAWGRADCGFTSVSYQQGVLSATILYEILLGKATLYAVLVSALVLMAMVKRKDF


Assays:
[1] = target: T1, Cynomolgus …; assay: SPR ProteOn off-rate screen
[2] = target: T1, Cynomolgus …; assay: SPR ProteOn off-rate screen
Excerpt: (§1) Unique ISVD clones, i.e. clones with a unique sequence, were subsequently selected and screened to determine their off-rate. To this purpose, the ISVD containing periplasmic extracts were screened on huTCR-zipper and cyTCR-zipper protein by SPR on a ProteOn XPR36 instrument. The zipper proteins were immobilized on a GLC sensor chip (between 4300 and 5100RU) via amine coupling chemistry, using EDC/sulfo-NHS for activation of the carboxyl groups on the chip surface (running buffer: HBS-EP+, pH7.4). Periplasmic extracts were injected at 1/10 dilution for 2 min (at a flow rate of 45 μL/min) and dissociation was followed for 900 s. A pulse of 100 s of 3 M MgCl2 at 45 μL/min was used for regeneration. […] Processed sensorgrams were fitted with the Langmuir model (1:1 interaction) using ProteOn Manager 3.1.0 (Version 3.1.0.6) software.

[3] = target: T1, Cynomolgus …; assay: SPR ProteOn off-rate screen
Excerpt: as §1

[4] = target: T2, Human T cell receptor on human primary …; assay: flow cytometry, human primary T cells
Description: The ISVD variants were characterized for binding to CHO-K1 huTCR(2XN9)/huCD3 or to human and cynomolgus primary T cells. […] Next, cells were washed 3 times with FACS buffer and incubated with 1 μg/ml ANTI-FLAG® M2 Ab (Sigma, F1804) and washed again. […] Subsequently, cells were resuspended in FACS buffer supplemented with 5 nM TO-PRO®-3 Iodide to distinguish live from dead cells, which are removed during the gating procedure. Cells were analyzed using a FACS Array flow cytometer (BD Biosciences) and Flowing Software. First a P1 population which represented more than 80% of the total cell population was selected based on FSC-SSC distribution. In this gate, 10000 cells were counted during acquisition. From this population the TO-PRO®-3+cells (dead cells) were excluded and the mean fluorescence intensity (MFI) PE value was calculated.

koff [2]	koff [3]	Binder	other results
0.00642 s⁻¹		T017000163 (VHH, also called T017000745) VHH: EVQLVESGGGVVQPGGSLRLSCVASGDVHQINFLGWYRQAPGKEREKVAHISIGDQTDYADSAKGRFTISRDESKNMVYLQMNSLRPEDTALYFCRAFSRIYPYDYWGQGTLVTVSS	koff [1]: 0.00701 s⁻¹
0.00806 s⁻¹		T017000170 (VHH) VHH: EVQLVESGGGVVQPGGSLRLSCVASGDVHKINYLGWYRQAPGKEREKVAHISIGDQTDYADSAKGRFTISRDESKNMVYLQMNSLRPEDTALYFCRAFSRIYPYDYWGQGTLVTVSS	
0.00389 s⁻¹		T017000188 (VHH) VHH: EVQLVESGGGVVQPGGSLRLSCVASGAVHKINFLGWYRQAPGKEREKVAHISIGDQTDYADSAKGRFTISRDESKNMVYLQMNSLRPEDTALYFCRAFSRIYPYDYWGQGTLVTVSS	
0.00325 s⁻¹		T017000177 (VHH) VHH: EVQLVESGGGVVQPGGSLRLSCVASGSVHKINFLGWYRQAPGKEREKVAHISIGDQTDYADSAKGRFTISRDESKNMVYLQMNSLRPEDTALYFCRAFSRIYPYDYWGQGTLVTVSS	
	0.0118 s⁻¹	T017000234 (VHH) VHH: EVQLVESGGGVVQPGGSLRLSCVASGDVHKINFLGWYRQAPGKEREKVAMISIGDQTDYADSAKGRFTISRDESKNMVYLQMNSLRPEDTALYFCRAFSRIYPYDYWGQGTLVTVSS	
	0.00939 s⁻¹	T017000249 (VHH) VHH: EVQLVESGGGVVQPGGSLRLSCVASGDVHKINFLGWYRQAPGKEREKVAHISIGDVTDYADSAKGRFTISRDESKNMVYLQMNSLRPEDTALYFCRAFSRIYPYDYWGQGTLVTVSS	
		T017000638 (VHH, not shown: small tags and cut ends) VHH: EVQLVESGGGVVQPGGSLRLSCVASWDVHKINFYTWYRQAPGKEREKVAHISIGDQTDYADSAKGRFTISRDESKNTVYLQMNSLRPEDTALYYCRALSRIWPYDYWGQGTLVTVSS	EC50 [4]: 66 nM
	0.0102 s⁻¹	T017000233 (VHH) VHH: EVQLVESGGGVVQPGGSLRLSCVASGDVHKINFLGWYRQAPGKEREKVAHISIGDQSDYADSAKGRFTISRDESKNMVYLQMNSLRPEDTALYFCRAFSRIYPYDYWGQGTLVTVSS	
	0.0107 s⁻¹	T017000258 (VHH) VHH: EVQLVESGGGVVQPGGSLRLSCVASGDVHKINFLGWYRQAPGKEREKVAHISIGEQTDYADSAKGRFTISRDESKNMVYLQMNSLRPEDTALYFCRAFSRIYPYDYWGQGTLVTVSS	
0.058 s⁻¹		T017000200 (VHH) VHH: EVQLVESGGGVVQPGGSLRLSCVASGDVHKINFLRWYRQAPGKEREKVAHISIGDQTDYADSAKGRFTISRDESKNMVYLQMNSLRPEDTALYFCRAFSRIYPYDYWGQGTLVTVSS	
	0.00957 s⁻¹	T017000238 (VHH) VHH: EVQLVESGGGVVQPGGSLRLSCVASGDVHKINFLGWYRQAPGKEREKVAHISIGDETDYADSAKGRFTISRDESKNMVYLQMNSLRPEDTALYFCRAFSRIYPYDYWGQGTLVTVSS	
0.00775 s⁻¹		T017000179 (VHH) VHH: EVQLVESGGGVVQPGGSLRLSCVASGDVHKINFLTWYRQAPGKEREKVAHISIGDQTDYADSAKGRFTISRDESKNMVYLQMNSLRPEDTALYFCRAFSRIYPYDYWGQGTLVTVSS	
	0.011 s⁻¹	T017000235 (VHH) VHH: EVQLVESGGGVVQPGGSLRLSCVASGDVHKINFLGWYRQAPGKEREKVAHISIGDHTDYADSAKGRFTISRDESKNMVYLQMNSLRPEDTALYFCRAFSRIYPYDYWGQGTLVTVSS	
	0.00867 s⁻¹	T017000231 (VHH) VHH: EVQLVESGGGVVQPGGSLRLSCVASGDVHKINFLGWYRQAPGKEREKVAVISIGDQTDYADSAKGRFTISRDESKNMVYLQMNSLRPEDTALYFCRAFSRIYPYDYWGQGTLVTVSS	
0.00791 s⁻¹		T017000174 (VHH) VHH: EVQLVESGGGVVQPGGSLRLSCVASWDVHKINFLGWYRQAPGKEREKVAHISIGDQTDYADSAKGRFTISRDESKNMVYLQMNSLRPEDTALYFCRAFSRIYPYDYWGQGTLVTVSS	
	0.0118 s⁻¹	T017000254 (VHH) VHH: EVQLVESGGGVVQPGGSLRLSCVASGDVHKINFLGWYRQAPGKEREKVAHISIGDRTDYADSAKGRFTISRDESKNMVYLQMNSLRPEDTALYFCRAFSRIYPYDYWGQGTLVTVSS	
0.0114 s⁻¹		T017000185 (VHH) VHH: EVQLVESGGGVVQPGGSLRLSCVASGDVHKINFFGWYRQAPGKEREKVAHISIGDQTDYADSAKGRFTISRDESKNMVYLQMNSLRPEDTALYFCRAFSRIYPYDYWGQGTLVTVSS	
0.0107 s⁻¹		T017000190 (VHH) VHH: EVQLVESGGGVVQPGGSLRLSCVASGDVHKINFLSWYRQAPGKEREKVAHISIGDQTDYADSAKGRFTISRDESKNMVYLQMNSLRPEDTALYFCRAFSRIYPYDYWGQGTLVTVSS	
0.00419 s⁻¹		T017000196 (VHH) VHH: EVQLVESGGGVVQPGGSLRLSCVASGDVHKIFFLGWYRQAPGKEREKVAHISIGDQTDYADSAKGRFTISRDESKNMVYLQMNSLRPEDTALYFCRAFSRIYPYDYWGQGTLVTVSS	
0.0147 s⁻¹		T017000208 (VHH) VHH: EVQLVESGGGVVQPGGSLRLSCVASYDVHKINFLGWYRQAPGKEREKVAHISIGDQTDYADSAKGRFTISRDESKNMVYLQMNSLRPEDTALYFCRAFSRIYPYDYWGQGTLVTVSS	
0.00791 s⁻¹		T017000176 (VHH) VHH: EVQLVESGGGVVQPGGSLRLSCVASGDVHKLNFLGWYRQAPGKEREKVAHISIGDQTDYADSAKGRFTISRDESKNMVYLQMNSLRPEDTALYFCRAFSRIYPYDYWGQGTLVTVSS	
	0.00895 s⁻¹	T017000232 (VHH) VHH: EVQLVESGGGVVQPGGSLRLSCVASGDVHKINFLGWYRQAPGKEREKVAHISIGDQVDYADSAKGRFTISRDESKNMVYLQMNSLRPEDTALYFCRAFSRIYPYDYWGQGTLVTVSS	
	0.0167 s⁻¹	T017000241 (VHH) VHH: EVQLVESGGGVVQPGGSLRLSCVASGDVHKINFLGWYRQAPGKEREKVAHISIGDQTNYADSAKGRFTISRDESKNMVYLQMNSLRPEDTALYFCRAFSRIYPYDYWGQGTLVTVSS	
0.00903 s⁻¹		T017000173 (VHH) VHH: EVQLVESGGGVVQPGGSLRLSCVASGDVHKINVLGWYRQAPGKEREKVAHISIGDQTDYADSAKGRFTISRDESKNMVYLQMNSLRPEDTALYFCRAFSRIYPYDYWGQGTLVTVSS	
0.00825 s⁻¹		T017000166 (VHH) VHH: EVQLVESGGGVVQPGGSLRLSCVASGDVHKINFYGWYRQAPGKEREKVAHISIGDQTDYADSAKGRFTISRDESKNMVYLQMNSLRPEDTALYFCRAFSRIYPYDYWGQGTLVTVSS	
0.00412 s⁻¹		T017000164 (VHH) VHH: EVQLVESGGGVVQPGGSLRLSCVASGYVHKINFLGWYRQAPGKEREKVAHISIGDQTDYADSAKGRFTISRDESKNMVYLQMNSLRPEDTALYFCRAFSRIYPYDYWGQGTLVTVSS	
0.00998 s⁻¹		T017000180 (VHH) VHH: EVQLVESGGGVVQPGGSLRLSCVASQDVHKINFLGWYRQAPGKEREKVAHISIGDQTDYADSAKGRFTISRDESKNMVYLQMNSLRPEDTALYFCRAFSRIYPYDYWGQGTLVTVSS	
	0.0109 s⁻¹	T017000223 (VHH) VHH: EVQLVESGGGVVQPGGSLRLSCVASGDVHKINFLGWYRQAPGKEREKVAHISIGDQADYADSAKGRFTISRDESKNMVYLQMNSLRPEDTALYFCRAFSRIYPYDYWGQGTLVTVSS	
	0.00936 s⁻¹	T017000245 (VHH) VHH: EVQLVESGGGVVQPGGSLRLSCVASGDVHKINFLGWYRQAPGKEREKVAHISIADQTDYADSAKGRFTISRDESKNMVYLQMNSLRPEDTALYFCRAFSRIYPYDYWGQGTLVTVSS	
